The nanobody polyreactivity screen of Harvey et al. (2022)

Assay: yeast display, Sf9 membrane polyspecificity reagent, FACS + sequencing; frameworks hold sequencing errors
In short: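 Sorting gates, low and high (top ~1%), were placed on anti-HA fluorescence to track expression and on streptavidin fluorescence to track reagent binding. A clone's polyreactivity label is taken from the gate it came out of. The reagent was 10% biotinylated, detergent-solubilized Sf9 membrane, applied for 1 hour at 4 °C to galactose-induced yeast display cells.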

Sequence	polyreactivity (PSR sort gate)
QVQIVESCGGLVQAGGSHRLSCAASGSTFVPNAMGWYRQAPGKEREFVAAISRIGGTYYADSVKGRFTISRDNEKNTVYLLMNCLKPEDNAVYYCAAEPSSVGYHVEYDYWGQGTQVTVSS	low polyreactivity
QVQIVESGAGLVQAGRSLRLSCAASGIIFHRYAMGWYRQAPGKERELVAAITWSGDSTYYADSVKGRFTISRDNAKNTVYLQMNSLKPEDTAVYYFWEYDYWGQGTQVTVSS	low polyreactivity
QVQIVESGAGLVQPGGSLRLSCAASGRTFPLYAMGWYRPAPGKEREFVAAITVSGVSTSYADSVKGRFTISRDNAKNTVYLQMNSLKPEDTAVYYCAADYYIWTYWDVYYWGQGTQVTVSS	high polyreactivity
QVQIVESGGCLVQAGGSLRLSCAASGFTLFLNSMGWYRQAPGQERELVAAISKSDGITYYADSVKGRFSISRDNAKNTVYLKMNSLKPEDTAVYYCNADARGWSVWDPGEYNYWGQGTQVNVSS	low polyreactivity
QVQIVESGGGKVQEGGSLRLSCAASGITFTWYDMGWYRQAPGKERELVAAITTDGGSTYYADSVKGRFTISRDNAKNTVYLQINSLKPEDTAVYYCAAAGYVPFPVVYEYWGQGTQVTVSS	high polyreactivity
QVQIVESGGGLFQAGGSLRISCAASGRPFAPNAMGWYRQAPAKERELVAAITGRGGRTYYADSVKGRFTISRDNANNTVYLQMNSEKPADTAVYYCAYFIAPWGLDFWGQGTEVTVSS	high polyreactivity
QVQIVESGGGLVHAGGSLRLSCAASGRNIPPYVIAWYRQAPGKEREMVAAMSWRGGNTYYADSVKGRFTISRDNAKNTVYLQMNSLKPEDTAVYYCAAKAYRRYSIPPYGYWGQGTQVTVSW	low polyreactivity
QVQIVESGGGLVHAGGSLRLSCAASGSIYKRYAMGWYRQAPGKERELVAAIRWSGGSTYYADSVKGRFTISRDNAMNTVFLQMNSLKPEDTAVYYCARDGWGRLYGMGYWGQGTQVTVSS	low polyreactivity
QVQIVESGGGLVPAGCSLRLICAASGFTYALYAMGWYRQAPGKETELVAANTYRGGSTYDADSVKWRFTISRDNAKNTVYLQLISLKPEDTAVYYCNAGGLWFPGVPDYDYWVQGTQVTVSS	high polyreactivity
QVQIVESGGGLVQAAGSLRLSCAASGRTFGYYAMGWYREAPGKEREMVAAITSCGRNTYYADTVKGRFTISRDNAKNNVYLQMNRLKPEDTAVYYCNTVYHAYWGKCVNYWGQGTQVTVSS	high polyreactivity
QVQIVESGGGLVQAGGILRLSCAASGRIFWRNAMGWYRQAPGKEREFVAAITYTAGRTYYADSVKGRFTISRDNSKITVYLQMNSLKPEDTAVYYCAAGSRRPGGTGYDHWVQGTQVTVSS	low polyreactivity
QVQIVESGGGLVQAGGILRLSCAASGRIFYTNAMGWYRKAPAKERELVAAIDNSDSTTYYADSVKWRYTISRDNAKNTVYLQMNSLKPEDTAVYYCAAESYLYTVTFEYWGQGTQVTVSS	high polyreactivity
QVQIVESGGGLVQAGGSLPLSCADYGLIFPDYAMGCYRQAPGKEREFVASIWRGGTTYYADSVKGRFTISRDNAKNTFYFKINSLKPEDTAVYYCASRYFHRGLVFPFTKYDYWGLGTQVTVSS	high polyreactivity
QVQIVESGGGLVQAGGSLRISCAASGRTFYWNAMGWNREAPGKEMELVSAISDGGGSTYYADSVKGRFSISRDNAKNTVYLQMNSLKPEDTAVYYCNTPDNQDKPYPGYDYWGQGTQVTVSS	low polyreactivity
QVQIVESGGGLVQAGGSLRLRCAASGRTFRDNAMGWSRQAPGKERELVAAIDIDSSTYYADSVKGRFTISRDNAKNTVYLQMISLKPEDTAVYYCAAESYHDGIGFPDYEYWGQGTQVTVSS	low polyreactivity
QVQIVESGGGLVQAGGSLRLSCAASGFIFGPYAMGWYRQAPGKERELVAAMSRSGGDTYYADSVKGRFTISRDFEKNTVYLQMNSLKPEDTAVYYCAAVGKYSAYNYWGQGTQVTVSS	high polyreactivity
QVQIVESGGGLVQAGGSLRLSCAASGFIFGQYAMGWYRQAPGKERELVAAISSVGTTNYADSVKGRFTISRDNAKNTVYLQMNSLKPEDTAVYYCNAPVFYYWDYSYFPYEVDYWGQGTQVTESS	low polyreactivity
QVQIVESGGGLVQAGGSLRLSCAASGFIFWFNAMGWYRQAPGKERELVATISWSDTSTYYAVSVKGRFTISRDNAKNTVYLQMNSLKPEDTAVYYFATDASETSLPEYYWGQGTQETVSS	low polyreactivity
QVQIVESGGGLVQAGGSLRLSCAASGFTCRGNAMGWYRQAPGKERELVATISYNAGSTYYADAVKGRFTISRDNAKNTVYFQMNSLNPEDTAVYYCAVELDSEPDYEPWTEYDYWGQGTQVTVSS	low polyreactivity
QVQIVESGGGLVQAGGSLRLSCAASGFTIDQYAMGWYRQAPGKERELVAAISWRGGSTYYADSVKGRFTISRDNAKNTVYLQMNSLKPEDTAVYYCNGYSPYHAGVDYGYWGQGTQVTVSS	high polyreactivity
QVQIVESGGGLVQAGGSLRLSCAASGLIFDANAMGWYRQAPGKERELVAAISNGDSTYYADSVKGRFTISRDNAKNTVYLQMNSLKPEDTAVYYCNARIIYRKWLLRSGTFNYWGQGTQVTVSS	low polyreactivity
QVQIVESGGGLVQAGGSLRLSCAASGLTFAYYAMGRYRQAPGKERELVAAISYSGGSTYYADSVKGRFTISRDNAKITVYLQMNSLKPEDTAVYYCNAYSRKTPHLYYYWGQGTQVTVSS	high polyreactivity

Sequence	polyreactivity (PSR sort gate)
QVQIVESGGGLVQAGGSLRLSCAASGRIFGYNAMGWYRQAPGKERELVAAISNTGGSTYYADSVKGRFTISRDNAKNTVYLQMNSLKPEDTAVYYCNASGRRVQIWEGDYWGHGTQVTVSS	high polyreactivity
QVQIVESGGGLVQAGGSLRLSCAASGRIFTYNAMGWSRQAPGKERELVAAITRGGTTNYADSVKVRFTISRDNAKNTVYLQMNSLKPEDTAVSYCARAGAHPWWSRSTMYYWGQGTQVTVSS	low polyreactivity
QVQIVESGGGLVQAGGSLRLSCAASGRIFVRNAMGWYRQAPAKERELVADITNGGSTNYADSVKGRFTISRDNEKNTVYLQMNSLKPEDTAVYYCAADSLGVYDGDYWGQGTQVTVSS	low polyreactivity
QVQIVESGGGLVQAGGSLRLSCAASGRIFYNYAMGWNRQAPGKERELVAAISGSGGSTYYADSVKGRFTISRDNAKNTVYLQMNSLKPEDTAVYYCSTSGPQYYSRNFDYWGQGTQVTVSS	low polyreactivity
QVQIVESGGGLVQAGGSLRLSCAASGRILVPYTMGWYRQAPGKERELVAAITIGGRTTYADSVKGRFTISRDNAKNTVYLQMNSLKPEDTAVYYCAKRDWRYEWYGYDYWGQGTQVTVSS	low polyreactivity
QVQIVESGGGLVQAGGSLRLSCAASGRNFGANAMGWYRQAPGKERELVASISSSGSRTYYAVSVKGRFTISRDNAKNTVSLQMNSLKPEDSAVYYCAARYWIYRSEYDYWGQGTQVTVSS	high polyreactivity
QVQIVESGGGLVQAGGSLRLSCAASGRTFTYYAMGWYRQAPGKERELVARIRSGGSTYYADSVKGRFTISRDNEKNTVYLQMNSLKPEDTAVYYCNADRRSAGLYNYWGQGTQVTVSS	low polyreactivity
QVQIVESGGGLVQAGGSLRLSCAASGRTFYSYAMGWYRQAPGKERELVAAIRWPGVRTYYADSVKGRFTISRDNAKNSFYLQMNSLKPEDTAVYYCAVYRYSGKGYRGPRDYWGQGTQVTVSS	high polyreactivity
QVQIVESGGGLVQAGGSLRLSCAASGRTIYYYTMGWYIQAPGKERELVAAITHGGSTYYADSVKGRFTISRDNAKNTVYLQMNSLNPEDTAVYYCNAVYDYPYEYWGQGTQVTVSS	high polyreactivity
QVQIVESGGGLVQAGGSLRLSCAASGRTLALYTMGWYRQAPGKERELVAAINWSGTSTYYADSVKGRNTISRDNAKNTVYLQINILKPEDTAVYYCNADGSAYIEDGYDYWGQGTQVTVSS	low polyreactivity
QVQIVESGGGLVQAGGSLRLSCAASGRTLGFYAMGWYRQAPGKEREFVAAISSSVGRTYYADSVKGRFTISRDNAKNTVYLHMNRLKPEDTAVYYCAAKVSAWKKKSEMNYWGQGTQVTVSS	high polyreactivity
QVQIVESGGGLVQAGGSLRLSCAASGRTLSYYAMGWYRQAPGKEREFVAAITGSGGSTYYADSVKGRFTISRDNAKNYVYFQMNSLKPEDTAVYYCNAKGLGVFTVEYYYWGQGTQVTVSS	low polyreactivity
QVQIVESGGGLVQAGGSLRLSCAASGSIFDDYAMGWYRQAPGKERELVAAISSGVSTDYADSVKGRFTISRDNAKNTVYLQMYSLKPEDTAVYYCAADDQYRVTLGYDYWGQGTQVTVSS	low polyreactivity
QVQIVESGGGLVQAGGSLRLSCAASGSIFFIYGMGWYRQAPVKERELVARIRVSGDSTYYADSVKGRFTISRDNAKNTVYVQMNSLKPVDTAVYYCNARSLWGYGYWGQCTQVTVSS	high polyreactivity
QVQIVESGGGLVQAGGSLRLSCAASGSIFGANDMGWYRQAPGKERELVAAISTRGGRTYYADSVKGRFTISRDNEMNTVYLHMNSLKPEDTAVYYCDTSGGRPYKYEYWGQGTQVTVSS	high polyreactivity
QVQIVESGGGLVQAGGSLRLSCAASGSIFSGYVMGWYRQAPGKERELVAAITWSGGRTYYADSVKGRFTISRDNAKNTVYLQMNSLKPEDTAVYYCAKRKIKSSGYYYWGQGTQVTVSS	high polyreactivity
QVQIVESGGGLVQAGGSLRLSCAASGSIFSVYAMGWYRQAPGKERELVAGINRRTGITYYADSVKGRFTISRDNAKNTVYLQMNSLKPEDTAVYYCAADPYVKYNYWGQGTQVTVSS	low polyreactivity
QVQIVESGGGLVQAGGSLRLSCAASGSIFTYNAMGWYRQAPGKERELVAAISYSGVRTYYADSVKGRFTISRDNAKNTVYLQMNRLKPVDTAVYYCNTRYPYSVLKYGYWGQGTQVTVSS	high polyreactivity
QVQIVESGGGLVQAGGSLRLSCAASGSTFGYYAMGWYRQAPGKERELVAAISWRGGSTYYADSVKGRFTISRDNAKNTVYLQMHILKPEYTAVYYCAAAIFITGYGSYGYWGLGTQVTVSS	low polyreactivity
QVQIVESGGGLVQAGGSLRLSCAASGSTFGYYTMGWYRQAPGKERELVAAISWSGGSTYYADSVKGRFTISRDNAKNTVYLQKNSLKPEDTAVYYCAALGYTYKYYSYYWGQGTQVTVSS	high polyreactivity
QVQIVESGGGLVQAGGSLRLSCAASGSTFKRYAMGWYRQAPGKERELVAAITWRGGSTYYADSVKGRFTISRDNAKNTVYLQMNSLKPEDTAVYYCAARANYFGWPKSYYYWGQGTQVTVSS	high polyreactivity
